± gives the standard deviation of the averaged measurements.
system: ATP; test: switch fluorescence ratio, 500 uM ATP over buffer (Cy3 cluster intensity, sum of 5 cycles each) (fold (ratio)); higher = stronger signal-on switching upon ATP binding; sequences stand for … in TCGTCGGCAGCGTCAGATGTGTATAAGAGACAGTTTTTTTTTTTTTTTTTTTTTTTTT…TC; details: aptamer strand: ATP DNA aptamer (quencher-CACCTGGGGGAGTATTGCGGAGGAAGG + anchor), 100 nM annealed; ATP concentration: 500 uM
How it was run: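 Cy3-labelled switching-strand clusters on a modified Illumina MiSeq flow-cell were annealed to 100 nM quencher-labelled ATP aptamer and imaged first in selection buffer, then after 15 min with 500 uM ATP at 22 °C. NaOH stripping and re-annealing separated each of five buffer/ATP cycles, and clusters outside 100-1000 RFU were excluded. The fluorescence ratio sums target-cycle Cy3 intensity over buffer-cycle Cy3 intensity per cluster and averages it per switch-domain sequence.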
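Note: ATP exposure 15 min at 22 °C before imaging.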

| Sequence | switch fluorescence ratio |
| --- | --- |
| AAAGTAGGTA | 0.976 ± 0.011 |
| AAAGTAGTAA | 1.01 ± 0.037 |
| AAAGTATATG | 0.983 ± 0.029 |
| AAAGTATTTG | 1.01 ± 0.05 |
| AAAGTATTTT | 1.03 ± 0.067 |
| AAAGTCGCGT | 1 ± 0.032 |
| AAAGTCTGGA | 1.028 ± 0.01 |
| AAAGTGCTAT | 1.02 ± 0.048 |
| AAAGTGCTCC | 1.095 ± 0.0075 |
| AAAGTGGCGT | 0.984 ± 0.08 |
| AAAGTGGTTG | 0.984 ± 0.024 |
| AAAGTGTGCT | 1.01 ± 0.024 |
| AAAGTGTTCC | 1.03 ± 0.017 |
| AAAGTGTTCG | 0.9797 ± 0.0097 |
| AAAGTTATGT | 1 ± 0.045 |
| AAAGTTGGTA | 0.967 ± 0.055 |
| AAAGTTGTCG | 0.969 ± 0.051 |
| AAAGTTTTCA | 1.02 ± 0.028 |
| AAAGTTTTGG | 0.985 ± 0.026 |
| AAAGTTTTGT | 0.983 ± 0.023 |
| AAATAAATTG | 0.999 ± 0.044 |
| AAATAAGTC | 0.945 ± 0.024 |

| Sequence | switch fluorescence ratio |
| --- | --- |
| AAATACGCAG | 1.07 ± 0.1 |
| AAATAGGGTG | 1.13 ± 0.18 |
| AAATATAAAC | 1.03 ± 0.087 |
| AAATATTGCG | 0.997 ± 0.034 |
| AAATCACGGA | 1.44 ± 0.23 |
| AAATCGCAGA | 1 ± 0.025 |
| AAATCGGATA | 1.03 ± 0.003 |
| AAATCGTACG | 0.988 ± 0.048 |
| AAATCTGGGT | 0.97 ± 0.013 |
| AAATCTGTAA | 1.03 ± 0.06 |
| AAATGAGCTT | 0.986 ± 0.029 |
| AAATGAGTGT | 0.975 ± 0.026 |
| AAATGCGTTA | 1.01 ± 0.02 |
| AAATGCGTTT | 0.979 ± 0.019 |
| AAATGGAGAC | 1.01 ± 0.034 |
| AAATGGAGGA | 0.988 ± 0.032 |
| AAATGGATAG | 1.007 ± 0.0029 |
| AAATGGATCG | 1 ± 0.018 |
| AAATGGCCAT | 1.01 ± 0.013 |
| AAATGGGGAA | 1.004 ± 0.0069 |
| AAATGGGTGG | 0.997 ± 0.025 |
| AAATGGTGTG | 1.02 ± 0.019 |

| Sequence | switch fluorescence ratio |
| --- | --- |
| AAATGGTTGT | 1.01 ± 0.02 |
| AAATGTTCTT | 0.986 ± 0.031 |
| AAATGTTGAT | 1.03 ± 0.019 |
| AAATTAAATC | 0.993 ± 0.043 |
| AAATTACTAG | 1.01 ± 0.048 |
| AAATTAGATG | 1.009 ± 0.0051 |
| AAATTAGGGA | 0.978 ± 0.046 |
| AAATTCGGGA | 0.9799 ± 0.0032 |
| AAATTCTGCG | 0.941 ± 0.0098 |
| AAATTGCTAG | 0.997 ± 0.032 |
| AAATTGGCAT | 0.993 ± 0.028 |
| AAATTGGGAT | 0.9636 ± 0.0093 |
| AAATTGGGCG | 0.983 ± 0.021 |
| AAATTGGGTA | 0.991 ± 0.024 |
| AAATTTAAAT | 1.02 ± 0.024 |
| AAATTTACAG | 1.03 ± 0.04 |
| AAATTTCATT | 1 ± 0.041 |
| AAATTTGGGC | 0.961 ± 0.02 |
| AAATTTTCC | 1.34 ± 0.065 |
| AACAACTTTT | 1.04 ± 0.042 |
| AACACAGGTA | 1.06 ± 0.013 |
| AACAGCTGTA | 1.05 ± 0.062 |

| Sequence | switch fluorescence ratio |
| --- | --- |
| AACAGGACAT | 1.06 ± 0.017 |
| AACAGGACGC | 1.08 ± 0.1 |
| AACAGGTGGG | 1.24 ± 0.023 |
| AACAGTCGCG | 0.968 ± 0.024 |
| AACAGTTGTG | 0.976 ± 0.017 |
| AACAGTTTTA | 0.972 ± 0.011 |
| AACATATGGG | 1 ± 0.012 |
| AACATGGAGG | 0.968 ± 0.031 |
| AACATTAGGC | 1.05 ± 0.039 |
| AACATTTTTC | 1.01 ± 0.021 |
| AACCAAAAAA | 1.01 ± 0.019 |
| AACCAAAGGT | 1.014 ± 0.0017 |
| AACCAATCGT | 1.03 ± 0.041 |
| AACCAGAGTA | 1.011 ± 0.0039 |
| AACCAGCTGG | 1.04 ± 0.03 |
| AACCAGTTAG | 1.01 ± 0.021 |
| AACCCACATC | 1.303 ± 0.002 |
| AACCCGAGCC | 1.196 ± 0.011 |
| AACCGGGGTT | 0.996 ± 0.046 |
